# In patent US20110151450:
# Residue numbers refer to the chain shown, from its start.
# What was measured:
# Test in all cases: cleavage_in_vitro
# [1] = system: BanII-HF R126A (Bacillus aneurinolyticus); conditions: NEB4, relative activity 50%
# [2] = target: T1, BanII-WT (Bacillus aneurinolyticus) (UniProt P19887); conditions: NEB4, relative activity 100%
# T1 sequence: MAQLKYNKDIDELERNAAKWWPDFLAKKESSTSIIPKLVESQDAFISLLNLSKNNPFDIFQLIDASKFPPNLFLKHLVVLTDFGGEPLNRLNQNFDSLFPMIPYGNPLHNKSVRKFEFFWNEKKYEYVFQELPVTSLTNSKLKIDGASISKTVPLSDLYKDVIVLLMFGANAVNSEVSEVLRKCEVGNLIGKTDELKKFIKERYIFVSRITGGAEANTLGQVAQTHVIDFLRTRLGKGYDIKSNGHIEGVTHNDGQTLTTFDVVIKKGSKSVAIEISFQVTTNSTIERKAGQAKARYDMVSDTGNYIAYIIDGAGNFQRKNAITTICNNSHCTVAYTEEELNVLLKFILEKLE
# [3] = system: T2, BclI-HF Y192F (Bacillus caldolyticus); conditions: NEB4, relative activity 100%
# T2 sequence: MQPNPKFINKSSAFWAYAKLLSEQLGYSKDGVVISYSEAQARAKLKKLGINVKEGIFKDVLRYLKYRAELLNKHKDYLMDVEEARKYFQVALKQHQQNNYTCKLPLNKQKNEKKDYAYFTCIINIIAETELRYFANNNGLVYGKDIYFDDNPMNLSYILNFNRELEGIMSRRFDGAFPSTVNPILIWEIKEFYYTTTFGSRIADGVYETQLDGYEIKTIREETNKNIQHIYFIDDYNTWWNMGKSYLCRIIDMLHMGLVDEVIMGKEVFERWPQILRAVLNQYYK
# [4] = system: T3, BclI-WT (Bacillus caldolyticus); conditions: NEB4, relative activity 100%
# T3 sequence: T2 sequence with F192Y
# [5] = target: T4, DpnII-HF R199A (Diplococcus pneumoniae) (UniProt P09357); conditions: NEB4, relative activity 100%
# T4 sequence: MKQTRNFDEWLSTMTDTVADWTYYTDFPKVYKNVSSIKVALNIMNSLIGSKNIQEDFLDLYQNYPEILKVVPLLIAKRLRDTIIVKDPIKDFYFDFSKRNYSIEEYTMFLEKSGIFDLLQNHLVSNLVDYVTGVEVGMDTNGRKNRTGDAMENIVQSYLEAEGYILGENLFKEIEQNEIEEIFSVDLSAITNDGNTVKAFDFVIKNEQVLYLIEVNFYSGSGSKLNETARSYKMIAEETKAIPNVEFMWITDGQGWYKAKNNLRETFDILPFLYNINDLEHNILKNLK
# [6] = target: T5, DpnII-WT (Diplococcus pneumoniae) (UniProt P09357); conditions: NEB4, relative activity 25%
# T5 sequence: T4 sequence with A199R
# [7] = system: T6, NruI-HF P22A/R90A (Nocardia rubra); conditions: NEB4, relative activity 100%
# T6 sequence: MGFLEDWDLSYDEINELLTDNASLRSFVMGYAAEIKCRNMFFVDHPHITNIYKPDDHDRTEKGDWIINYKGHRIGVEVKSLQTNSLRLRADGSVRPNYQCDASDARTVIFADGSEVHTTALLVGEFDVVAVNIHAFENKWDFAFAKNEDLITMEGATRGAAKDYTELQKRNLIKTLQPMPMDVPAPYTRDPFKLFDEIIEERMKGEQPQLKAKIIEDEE
# [8] = system: T7, NruI-WT (Nocardia rubra); conditions: NEB4, relative activity 12.5%
# T7 sequence: T6 sequence with A22P, A90R
# [9] = target: T8, BanI-HF Q292A (Bacillus aneurinolyticus) (UniProt P19887); conditions: NEB4, relative activity 100%
# T8 sequence: T1 sequence with Q292A
# [10] = target: T9, BanI-WT (Bacillus aneurinolyticus) (UniProt P19887); conditions: NEB4, relative activity 100%
# T9 sequence: T1 sequence
# [11] = target: T10, BglI-HF K225A (Bacillus globigii) (UniProt O68557); conditions: NEB4, relative activity 100%
# T10 sequence: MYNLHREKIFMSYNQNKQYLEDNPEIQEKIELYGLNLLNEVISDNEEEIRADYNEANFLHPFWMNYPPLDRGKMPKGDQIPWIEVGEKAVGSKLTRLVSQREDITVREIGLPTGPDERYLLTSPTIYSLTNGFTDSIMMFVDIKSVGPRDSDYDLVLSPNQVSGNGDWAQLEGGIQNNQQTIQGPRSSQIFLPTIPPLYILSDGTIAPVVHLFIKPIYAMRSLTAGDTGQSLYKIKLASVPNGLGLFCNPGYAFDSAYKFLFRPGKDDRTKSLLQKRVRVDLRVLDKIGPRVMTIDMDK
# [12] = target: T11, BglI-WT (Bacillus globigii) (UniProt O68557); conditions: NEB4, relative activity 50%
# T11 sequence: T10 sequence with A225K
# [13] = system: T12, BstEII-HF R105A (Bacillus stearothermophilus); conditions: NEB4, relative activity 100%
# T12 sequence: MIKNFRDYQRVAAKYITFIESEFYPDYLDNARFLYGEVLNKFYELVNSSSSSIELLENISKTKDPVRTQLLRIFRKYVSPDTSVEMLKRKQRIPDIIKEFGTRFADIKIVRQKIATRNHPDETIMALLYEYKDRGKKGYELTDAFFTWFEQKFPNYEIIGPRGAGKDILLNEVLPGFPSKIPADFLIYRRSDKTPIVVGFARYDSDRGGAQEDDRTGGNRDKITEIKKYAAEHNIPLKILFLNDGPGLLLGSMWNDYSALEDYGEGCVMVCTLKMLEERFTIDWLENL
# [14] = system: T13, BstEII-WT (Bacillus stearothermophilus); conditions: NEB4, relative activity 100%
# T13 sequence: T12 sequence with A105R
# [15] = system: T14, MluI-HF E112A/R132A (Micrococcus luteus); conditions: NEB4, relative activity 100%
# T14 sequence: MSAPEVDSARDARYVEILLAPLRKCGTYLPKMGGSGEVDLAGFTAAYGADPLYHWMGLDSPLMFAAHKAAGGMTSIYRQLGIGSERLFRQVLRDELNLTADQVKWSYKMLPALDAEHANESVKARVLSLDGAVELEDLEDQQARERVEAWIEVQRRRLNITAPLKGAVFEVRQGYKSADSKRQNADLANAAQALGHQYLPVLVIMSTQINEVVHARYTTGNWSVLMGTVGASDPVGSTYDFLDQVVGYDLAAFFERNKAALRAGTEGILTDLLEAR
# [16] = system: T15, MluI-WT (Micrococcus luteus); conditions: NEB4, relative activity 25%
# T15 sequence: T14 sequence with A112E, A132R
# [17] = system: T16, NspI-HF S97A (Nostoc species); conditions: NEB4, BSA, relative activity 100%
# T16 sequence: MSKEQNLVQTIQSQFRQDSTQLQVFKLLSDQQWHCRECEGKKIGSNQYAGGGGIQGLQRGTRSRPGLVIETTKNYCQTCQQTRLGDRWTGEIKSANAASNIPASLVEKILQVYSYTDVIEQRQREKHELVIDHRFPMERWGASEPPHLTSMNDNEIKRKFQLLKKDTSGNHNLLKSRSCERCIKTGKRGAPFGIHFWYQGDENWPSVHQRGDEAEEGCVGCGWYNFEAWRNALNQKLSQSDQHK
# [18] = system: T17, NspI-WT (Nostoc species); conditions: NEB4, BSA, relative activity 50%
# T17 sequence: T16 sequence with A97S
substance,measurement,setting,value
dam- lambda DNA,activity (fidelity index),[1],> 2000
same,activity (fidelity index),[2],16
same,activity (fidelity index),[3],> 2000
same,activity (fidelity index),[4],32
same,activity (fidelity index),[5],8000
same,activity (fidelity index),[6],1
same,activity (fidelity index),[7],> 16000
same,activity (fidelity index),[8],32
lambda DNA,activity (fidelity index),[9],> 2000
same,activity (fidelity index),[10],16
same,activity (fidelity index),[11],> 8000
same,activity (fidelity index),[12],32
same,activity (fidelity index),[13],> 2000
same,activity (fidelity index),[14],4
same,activity (fidelity index),[15],> 32000
same,activity (fidelity index),[16],32
pUC19 plasmid,activity (fidelity index),[17],500
same,activity (fidelity index),[18],32
